Target: latrunculin B bound actin (A. castellani actin monomer) (A. castellani)
Test: fluorescence polarisation

Kd: 90 nM
Substance: Spir second WH2 domain (SB) (domain or fragment)
